This note sets out measurements from publication PMC3741918 (FEBS Open Bio, 2013).

The target of experiment [1] is human frataxin variant hFXN56–210 (human) (UniProt Q16595). The experiment can be described thus: SEC. (SEC sorts molecules by how far they enter the pores of the column.)
Experiment [2] deals with T1, human frataxin variant hFXN56–210 (human, UniProt Q16595 56-210).
T1 sequence (looked up): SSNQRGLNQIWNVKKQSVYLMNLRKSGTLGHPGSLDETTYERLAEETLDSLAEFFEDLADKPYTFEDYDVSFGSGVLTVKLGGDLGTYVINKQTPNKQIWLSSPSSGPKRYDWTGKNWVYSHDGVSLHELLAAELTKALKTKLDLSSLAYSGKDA
Description: aggregation assay.

Consider “human frataxin variant hFXN56–210 (from UniProt Q16595 56-210) (domain or fragment)”, for which the percent of the protein in the oligomeric state in experiment [1] came to 60%. For SSNQRGLNQIWNVKKQSVYLMNLRKS [peptide hFXN56–81], in experiment [2], the binding result is listed as “binds”.
